Measurements: patent EP4596582A1 (Sichuan Kelun-Biotech Biopharmaceutical Co., Ltd., dated 2025)
Like-named read-outs stand apart in the source and are kept apart here.

T1: monkey B7-H3-4Ig-His protein (monkey)
T1 chain: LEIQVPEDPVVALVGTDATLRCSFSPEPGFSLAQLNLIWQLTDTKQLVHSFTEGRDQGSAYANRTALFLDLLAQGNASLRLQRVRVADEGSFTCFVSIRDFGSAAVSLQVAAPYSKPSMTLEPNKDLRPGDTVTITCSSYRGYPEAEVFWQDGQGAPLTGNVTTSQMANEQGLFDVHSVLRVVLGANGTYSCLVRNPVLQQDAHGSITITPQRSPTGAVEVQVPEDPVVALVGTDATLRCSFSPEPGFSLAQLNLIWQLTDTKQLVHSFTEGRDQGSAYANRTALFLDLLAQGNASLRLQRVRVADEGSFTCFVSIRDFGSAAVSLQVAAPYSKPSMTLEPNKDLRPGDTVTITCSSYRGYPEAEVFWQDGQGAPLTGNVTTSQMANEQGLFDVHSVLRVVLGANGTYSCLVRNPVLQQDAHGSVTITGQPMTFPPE

T2: human B7-H3-4Ig-His protein (human, UniProt Q5ZPR3 29-466)
T2 construct: extracellular domain; Made in HEK293-EBNA cells
T2 sequence: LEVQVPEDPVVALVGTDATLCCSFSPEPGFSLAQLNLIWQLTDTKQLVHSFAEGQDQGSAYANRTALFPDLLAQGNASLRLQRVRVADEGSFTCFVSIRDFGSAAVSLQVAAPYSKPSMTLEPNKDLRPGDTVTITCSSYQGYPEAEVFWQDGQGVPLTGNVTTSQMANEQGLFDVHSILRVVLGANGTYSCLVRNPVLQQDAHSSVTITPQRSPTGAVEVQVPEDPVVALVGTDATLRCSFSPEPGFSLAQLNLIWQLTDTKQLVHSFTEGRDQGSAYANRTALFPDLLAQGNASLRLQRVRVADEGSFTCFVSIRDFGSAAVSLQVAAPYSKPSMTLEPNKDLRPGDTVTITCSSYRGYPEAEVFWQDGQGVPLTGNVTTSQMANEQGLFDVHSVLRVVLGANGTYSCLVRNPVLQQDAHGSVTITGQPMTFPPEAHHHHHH

T3: human B7-H3 on human tumor cells (MCF-7, HT29, NCI-N87, HCC1806, HCC827) (human, UniProt Q5ZPR3 29-534)
T3 construct: whole, on cells
T3 sequence (looked up): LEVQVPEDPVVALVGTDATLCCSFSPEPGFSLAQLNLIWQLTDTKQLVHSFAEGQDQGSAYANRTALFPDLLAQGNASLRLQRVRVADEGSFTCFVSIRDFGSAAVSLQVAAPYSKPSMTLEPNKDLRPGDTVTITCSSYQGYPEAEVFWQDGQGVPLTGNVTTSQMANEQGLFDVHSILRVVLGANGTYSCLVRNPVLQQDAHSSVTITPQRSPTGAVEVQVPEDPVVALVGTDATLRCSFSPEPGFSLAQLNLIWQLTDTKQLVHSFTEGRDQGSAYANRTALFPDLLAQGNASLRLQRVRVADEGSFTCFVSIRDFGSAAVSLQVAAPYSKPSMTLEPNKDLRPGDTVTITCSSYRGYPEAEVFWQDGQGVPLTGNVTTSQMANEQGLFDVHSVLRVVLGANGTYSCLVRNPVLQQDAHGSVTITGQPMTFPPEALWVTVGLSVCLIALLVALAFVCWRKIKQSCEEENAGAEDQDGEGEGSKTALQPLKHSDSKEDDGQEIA

B1: anti-human-B7-H3 chimeric antibody 20G11G6 (antibody, V domains shown)
VH: QVQLQESGPGLVKPSGTLSLTCAVSGGSNSSSNWWTWVRQSPGKGLEWIGEISPTGFTSYSPSLKSRVTISVDKSKTQFSLNLSSVTAADTAVYYCARDRLYFDFWGQGTLVTVSS
VL: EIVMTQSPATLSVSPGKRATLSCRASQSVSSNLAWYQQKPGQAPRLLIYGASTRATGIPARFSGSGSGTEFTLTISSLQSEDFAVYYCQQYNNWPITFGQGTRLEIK
notes: Purified from hybridoma of H2L2 transgenic mice: human variable regions with constant regions of rat origin
B2: anti-human-B7-H3 human antibody 2# (antibody, human IgG1, kappa, V domains shown)
VH: B1 VH
VL: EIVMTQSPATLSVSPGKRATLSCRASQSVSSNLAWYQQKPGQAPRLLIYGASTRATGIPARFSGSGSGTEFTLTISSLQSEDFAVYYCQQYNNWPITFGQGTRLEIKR
notes: also called 20G11G6/2#

Assays:
[1] = biological target: T1, monkey B7-H3-4Ig-His protein; experiment: ELISA, antigen coated at 1 ug/ml
[2] = biological target: T2, human B7-H3-4Ig-His protein; experiment: ELISA, antigen coated at 1 ug/ml
[3] = biological target: T3, human B7-H3 on human tumor cells …; experiment: flow cytometry on MCF-7 cells
[4] = biological target: T1, monkey B7-H3-4Ig-His protein; experiment: ELISA, antigen coated at 1 ug/ml
[5] = biological target: T2, human B7-H3-4Ig-His protein; experiment: ELISA, antigen coated at 1 ug/ml; remark: listed apart in the source

Binder | EC50 [1] [µg/mL] | EC50 [2] [µg/mL] | EC50 [3] [µg/mL] | EC50 [4] [µg/mL] | EC50 [5] [µg/mL]
B1 | 0.0213 | 0.0165 | 0.228 | – | –
B2 | – | – | – | 0.00394 | 0.00297
